Data set [1] deals with the molecule itself. Briefly: single-molecule photobleaching steps and initial intensity (TIRF); 0.5 nM fluorescent motor adsorbed non-specifically on silanised coverslips, BRB80 with oxygen scavengers; bleaching steps counted by hand; K560-2mNG as intensity reference.
Data set [2] concerns the molecule itself. Briefly: native gel or EMSA; native PAGE of purified CENP-E483; species at ~100 kDa and ~230 kDa.

B1: truncated human CENP-E754 containing five predicted coiled-coils of the native stalk (domain or fragment, UniProt Q02224 1-754, looked up)
chain: MAEEGAVAVCVRVRPLNSREESLGETAQVYWKTDNNVIYQVDGSKSFNFDRVFHGNETTKNVYEEIAAPIIDSAIQGYNGTIFAYGQTASGKTYTMMGSEDHLGVIPRAIHDIFQKIKKFPDREFLLRVSYMEIYNETITDLLCGTQKMKPLIIREDVNRNVYVADLTEEVVYTSEMALKWITKGEKSRHYGETKMNQRSSRSHTIFRMILESREKGEPSNCEGSVKVSHLNLVDLAGSERAAQTGAAGVRLKEGCNINRSLFILGQVIKKLSDGQVGGFINYRDSKLTRILQNSLGGNAKTRIICTITPVSFDETLTALQFASTAKYMKNTPYVNEVSTDEALLKRYRKEIMDLKKQLEEVSLETRAQAMEKDQLAQLLEEKDLLQKVQNEKIENLTRMLVTSSSLTLQQELKAKRKRRVTWCLGKINKMKNSNYADQFNIPTNITTKTHKLSINLLREIDESVCSESDVFSNTLDTLSEIEWNPATKLLNQENIESELNSLRADYDNLVLDYEQLRTEKEEMELKLKEKNDLDEFEALERKTKKDQEMQLIHEISNLKNLVKHAEVYNQDLENELSSKVELLREKEDQIKKLQEYIDSQKLENIKMDLSYSLESIEDPKQMKQTLFDAETVALDAKRESAFLRSENLELKEKMKELATTYKQMENDIQLYQSQLEAKKKMQVDLEKELQSAFNEITKLTSLIDGKVPKDLLCNLELEGKITDLQKELNKEVEENEALREEVILLSELKSLPS
notes: CENP-E, human, N-terminal truncation with the motor domain and five predicted coiled-coils; source: Sf9 cells (baculovirus), purified (HisTrap HP, Superose 6 Increase); not shown: 2x tandem mNeonGreen, C-terminal, kept
Take B1: the binding result in data set [1] is listed as “binds”.

B2: human CENP-E483 followed by two tandem mNeonGreen fluorophores (domain or fragment, UniProt Q02224 1-483, looked up)
chain: MAEEGAVAVCVRVRPLNSREESLGETAQVYWKTDNNVIYQVDGSKSFNFDRVFHGNETTKNVYEEIAAPIIDSAIQGYNGTIFAYGQTASGKTYTMMGSEDHLGVIPRAIHDIFQKIKKFPDREFLLRVSYMEIYNETITDLLCGTQKMKPLIIREDVNRNVYVADLTEEVVYTSEMALKWITKGEKSRHYGETKMNQRSSRSHTIFRMILESREKGEPSNCEGSVKVSHLNLVDLAGSERAAQTGAAGVRLKEGCNINRSLFILGQVIKKLSDGQVGGFINYRDSKLTRILQNSLGGNAKTRIICTITPVSFDETLTALQFASTAKYMKNTPYVNEVSTDEALLKRYRKEIMDLKKQLEEVSLETRAQAMEKDQLAQLLEEKDLLQKVQNEKIENLTRMLVTSSSLTLQQELKAKRKRRVTWCLGKINKMKNSNYADQFNIPTNITTKTHKLSINLLREIDESVCSESDVFSNTLDTLSEIE
notes: CENP-E, human, N-terminal truncation with the motor domain and the first predicted coiled-coil (334-401); Codon-optimised synthetic gene in pFastBac1; predicted monomer mass 109 kDa with the tags; also called truncated CENP-E483; source: Sf9 cells (baculovirus), purified (HisTrap HP, Superose 6 Increase); not shown: 2x tandem mNeonGreen, C-terminal, kept
Turning to B2, in data set [2], the stoichiometry N (in general, a count of units in the complex or per binding partner) stood at 2.

The record behind these values is article doi:10.1101/2022.01.21.477187 (bioRxiv, 2022).
